In patent publication US5733890A, “Adenylate analogs as potent anti-herpes virus agents” (National Science Council, priority 1996, dated 1998):

Experiments:
Experiment in all cases: Deamination kinetics of compounds as substrates of adenosine deaminase
Format in all cases: biochemical, calf
Details in all cases: other: adenosine deaminase substrate; buffer solutions
[1] = substrate: Nc1ncnc2c1ncn2COCCO
Description: (§1) By following an established procedure [Ogilvie, K. K.; Nguyen-Ba, N.; Gillen, M. F.; Radatus, B. K.; Cheriyan, U. O.; Hanna, H. R.; Smith, K. O.; Galloway, K. S. Synthesis of A Purine Acyclonucleoside Series Having Pronounced Antiviral Activity. The Glyceropurines. Can. J. Chem. 1984, 62, 241-252.], we determined the rates of deamination of VI, 13, 37, 40, and 42 in the presence of calf mucosal adenosine deaminase (EC 3.5.4.4) in buffer solutions.

[2] = substrate: Nc1ncnc2c1ncn2COCCP(=O)(O)O[C@H]1[C@H](O)[C@H](n2cnc3c(N)ncnc32)O[C@@H]1CO
Description: as §1

[3] = substrate: Nc1ncnc2c1ncn2COCCP(=O)(O)O
Description: as §1

[4] = substrate: Nc1ncnc2c1ncn2[C@@H]1O[C@H](CO)[C@@H](O)[C@@H]1O
Description: as §1

B1: calf mucosal adenosine deaminase (EC 3.5.4.4) (Bos taurus) (protein)
chain: MAQTPAFNKPKVELHVHLDGAIKPETILYYGRKRGIALPADTPEELQNIIGMDKPLSLPEFLAKFDYYMPAIAGCREAVKRIAYEFVEMKAKDGVVYVEVRYSPHLLANSKVEPIPWNQAEGDLTPDEVVSLVNQGLQEGERDFGVKVRSILCCMRHQPSWSSEVVELCKKYREQTVVAIDLAGDETIEGSSLFPGHVKAYAEAVKSGVHRTVHAGEVGSANVVKEAVDTLKTERLGHGYHTLEDATLYNRLRQENMHFEVCPWSSYLTGAWKPDTEHPVVRFKNDQVNYSLNTDDPLIFKSTLDTDYQMTKNEMGFTEEEFKRLNINAAKSSFLPEDEKKELLDLLYKAYGMPSPASAEQCL
notes: calf mucosal adenosine deaminase; from tissue; host or cells: calf mucosa
For B1, the Km [1] was 138.0 µM, the Km [2] was 166.2 µM and the Km [3] was 247.5 µM. The Km [4] was 45.3 µM.
